IntAct's records for PubMed 20668449

B1: N-terminal Xaa-Pro-Lys N-methyltransferase 1 (Homo sapiens), Q9BV86 (parent)
chain: MTSEVIEDEKQFYSKAKTYWKQIPPTVDGMLGGYGHISSIDINSSRKFLQRFLREGPNKTGTSCALDCGAGIGRITKRLLLPLFREVDMVDITEDFLVQAKTYLGEEGKRVRNYFCCGLQDFTPEPDSYDVIWIQWVIGHLTDQHLAEFLRRCKGSLRPNGIIVIKDNMAQEGVILDDVDSSVCRDLDVVRRIICSAGLSLLAEERQENLPDEIYHVYSFALR
B2: Regulator of chromosome condensation (Homo sapiens), P18754 (parent)
chain: MSPKRIAKRRSPPADAIPKSKKVKVSHRSHSTEPGLVLTLGQGDVGQLGLGENVMERKKPALVSIPEDVVQAEAGGMHTVCLSKSGQVYSFGCNDEGALGRDTSVEGSEMVPGKVELQEKVVQVSAGDSHTAALTDDGRVFLWGSFRDNNGVIGLLEPMKKSMVPVQVQLDVPVVKVASGNDHLVMLTADGDLYTLGCGEQGQLGRVPELFANRGGRQGLERLLVPKCVMLKSRGSRGHVRFQDAFCGAYFTFAISHEGHVYGFGLSNYHQLGTPGTESCFIPQNLTSFKNSTKSWVGFSGGQHHTVCMDSEGKAYSLGRAEYGRLGLGEGAEEKSIPTLISRLPAVSSVACGASVGYAVTKDGRVFAWGMGTNYQLGTGQDEDAWSPVEMMGKQLENRVVLSVSSGGQHTVLLVKDKEQS

Variants of: B1
Settings: with rcc1_human RCC1, P18754

Variant | effect of a mutation on the interaction
D180K | disrupting interaction
N168K | disrupting interaction

Variants of: B2
Settings: with ntm1a_human NTMT1, Q9BV86

Variant | effect of a mutation on the interaction
S2D | disrupting interaction strength
S2V | decreasing interaction

Variants of: B2
Settings: with ntm1a_human NTMT1, Q9BV86
Remark: another data set of the same source

Variant | effect of a mutation on the interaction
K4Q | disrupting interaction
